Measured values from US6960343B2, “Toll/interleukin-1 receptor adapter protein (TIRAP)” (Yale University School of Medicine, priority 2001, dated 2005).

Key:
TLR4 = molecular target: T1, TLR4 (Homo sapiens, UniProt O00206); experiment: Co-immunoprecipitation with Myc-tagged TLR4 in 293T cells; format: binding; conditions: 293T cell lysates, anti-Flag immunoprecipitation
T1 construct: a Myc-tagged TLR4 deletion construct lacking the ectodomain (Myc TLR4 wt); Myc; expressed in transfected cells; host or cells: 293T cells
T1 sequence (O00206 653-839 limits assumed): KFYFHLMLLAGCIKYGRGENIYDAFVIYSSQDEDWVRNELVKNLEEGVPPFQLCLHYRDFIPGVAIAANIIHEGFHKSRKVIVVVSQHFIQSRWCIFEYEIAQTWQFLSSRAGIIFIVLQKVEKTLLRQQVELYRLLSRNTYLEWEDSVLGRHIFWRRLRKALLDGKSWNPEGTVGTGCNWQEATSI
Text: (§1) Cells were transfected in the presence (+) or absence (−) of constructs encoding a wild-type portion of TLR4 (TLR4 wt), a mutant derivative thereof (TLR4 mut), wild-type TIRAP (TIRAP), a mutant TIRAP containing a P125H mutation (TIRAP PH), or wild-type MyD88 (MyD88), wherein each construct further encodes a Myc, Flag, or hemaglutanin (HA) tag, as indicated. Antibodies used for immunoprecipitation (IP) or immunoblot (IB) are indicated to the left of each blot.
(§2) To obtain biochemical conformation for a role of TIRAP in the TLR4 signaling pathway, TIRAP-TLR4 protein interactions were evaluated using co-immunoprecipitation experiments. 293T cells were co-transfected with 4.5 μg of a Myc-tagged TLR4 deletion construct lacking the ectodomain (Myc TLR4 wt) or its mutant derivative (Myc TLR4 P714H) in the presence or absence of 1.5 μg of Flag-tagged TIRAP (Flag TIRAP) or its mutant derivative containing the P125H mutation (Flag TIRAP PH). […] Immunocomplexes were washed, separated by SDS-PAGE electrophoresis, and then analyzed by immunoblotting with either anti-myc antibody to look for co-immunoprecipitated TLR4 or anti-Flag antibody to confirm immunoprecipitation of Flag TIRAP or Flag TIRAP P125H. Total cell lysates (35 μg/sample) were likewise analyzed by SDS-PAGE and immunoblotting to confirm equivalent expression of the appropriate proteins in every sample. […]

MyD88 = molecular target: T2, MyD88 (Homo sapiens, UniProt Q99836); experiment: Co-immunoprecipitation with Flag-tagged MyD88 in 293T cells; format: binding; conditions: 293T cell lysates
T2 construct: Flag; expressed in transfected cells; host or cells: 293T cells
Text: as §1
as §2, with “experiments.” for “experiments. 293T cells were co-transfected with 4.5 μg of a Myc-tagged TLR4 deletion construct lacking the ectodomain (Myc TLR4 wt) or its mutant derivative (Myc TLR4 P714H) in the presence or absence of 1.5 μg of Flag-tagged TIRAP (Flag TIRAP) or its mutant derivative containing the P125H mutation (Flag TIRAP PH).”
(§3) Similarly, the interaction between TIRAP and MyD88 was examined. […] Direct interactions between TIRAP and the TIR domain of TLR4 was also detected using in vitro glutathione S transferase (GST) pull-down assays.

IRAK = IRAK (Homo sapiens, UniProt P51617); experiment: Association with IRAK; format: binding
TIRAP = molecular target: T3, TIRAP (Homo sapiens, UniProt P58753); experiment: Co-immunoprecipitation of HA TIRAP with Flag TIRAP (homodimerization); format: binding; conditions: 293T cell lysates
T3 construct: Flag; expressed in transfected cells; host or cells: 293T cells
Text: as §1
as §2, with “experiments.” for “experiments. 293T cells were co-transfected with 4.5 μg of a Myc-tagged TLR4 deletion construct lacking the ectodomain (Myc TLR4 wt) or its mutant derivative (Myc TLR4 P714H) in the presence or absence of 1.5 μg of Flag-tagged TIRAP (Flag TIRAP) or its mutant derivative containing the P125H mutation (Flag TIRAP PH).”
as §3

TIR domain of TLR4 = molecular target: T4, TIR domain of TLR4 (Homo sapiens, UniProt O00206); experiment: In vitro glutathione S transferase (GST) pull-down assay; format: binding
T4 sequence (O00206 672-815 limits assumed): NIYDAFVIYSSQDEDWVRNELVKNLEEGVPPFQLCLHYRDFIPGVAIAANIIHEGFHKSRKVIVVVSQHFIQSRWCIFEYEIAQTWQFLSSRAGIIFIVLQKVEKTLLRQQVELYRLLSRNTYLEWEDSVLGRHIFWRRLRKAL
Description: Similarly, the interaction between TIRAP and MyD88 was examined. 293T cells were transfected with 1.5 μg of either HA-tagged TIRAP (HA TIRAP) alone or in combination with 1.5 μg of either Flag-tagged MyD88 (Flag MyD88), Flag-tagged TIRAP (Flag-TIRAP), or Flag-tagged TIRAP P125H (Flag TIRAP PH). Immunoprecipitation and analyses of immunocomplexes as well as total cell lysates were done as described above. […] Direct interactions between TIRAP and the TIR domain of TLR4 was also detected using in vitro glutathione S transferase (GST) pull-down assays.

PKR = experiment: Co-immunoprecipitation with HA PKR kinase dead mutant in 293T cells; format: binding; conditions: 293T cell lysates
Description: (§4) (A) Bone marrow-derived macrophages from either wild-type (WT) or MyD88-deficient (MyD88^−/−) mice were stimulated for the indicated time periods (minutes) with either LPS or CpG, and immunoblots were performed using an antibody that specifically recognizes phosphorylated PKR (PKR-P). B and C Cells were transfected with constructs encoding Flag-tagged TIRAP and either a construct encoding an HA-tagged kinase dead mutant of PKR (HA PKR KD) or p58, as indicated. Antibodies used for immunoprecipitation (IP) or immunoblot (IB) are indicated to the left of each blot, and arrows on the right show the location of the indicated proteins.
To determine whether PKR and TIRAP interact, lysates from 293T cells transfected with either 3.5 μg of an HA PKR kinase dead (KD) mutant […] 1.5 μg of Flag TIRAP were subjected to immunoprecipitation analyses as described above, followed by SDS-PAGE and immunoblotting with the indicated antibodies. The PKR KD mutant rather than wild type PKR was used because overexpressing PKR induces cell death. PKR did, in fact, co-immunoprecipitate with TIRAP (FIG. 4B), further supporting the link between PKR and TIRAP established above.

p58 = experiment: Co-immunoprecipitation with p58 in 293T cells; format: binding; conditions: 293T cell lysates
Description: as §4
(§5) Because TIRAP may not regulate PKR directly, the interaction between TIRAP and two other proteins, p58 and PACT, was analyzed. p58 is a tetratricopeptide repeat-containing protein that negatively regulates PKR activity (Lee 1994), and PACT is a dsRNA-binding domain-containing protein that activates PKR in response to cellular stress (Patel 19980). Lysates from 293T cells transfected with either p58-encoding vector (3.5 μg) or PACT (3.5 μg) and Flag TIRAP (1.5 μg) were subject to immunoprecipitation analyses followed by SDS-PAGE and immunoblotting with the indicated antibodies.

PACT = molecular target: T5, PACT (Homo sapiens, UniProt O75569); experiment: Co-immunoprecipitation with PACT in 293T cells; format: binding; conditions: 293T cell lysates
T5 construct: expressed in transfected cells; host or cells: 293T cells
T5 sequence (O75569 1-313): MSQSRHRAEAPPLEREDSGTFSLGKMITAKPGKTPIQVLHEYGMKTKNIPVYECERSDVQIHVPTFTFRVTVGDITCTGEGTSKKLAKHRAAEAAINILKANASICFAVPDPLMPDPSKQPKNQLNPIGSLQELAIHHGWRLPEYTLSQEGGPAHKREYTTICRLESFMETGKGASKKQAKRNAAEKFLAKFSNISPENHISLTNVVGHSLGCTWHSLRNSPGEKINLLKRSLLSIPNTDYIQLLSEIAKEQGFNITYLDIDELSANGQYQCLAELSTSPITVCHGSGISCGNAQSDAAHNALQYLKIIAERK
Description: as §5

NF-κB promoter = experiment: NF-κB-dependent luciferase reporter assay, 293T cells co-transfected with TIRAP constructs; conditions: 2.0 μg construct, 24 h post-transfection
Description: To determine the effect of various TIRAP constructs on the promoter activity of NF-κB, 293T cells were co-transfected with 2.0 μg of the indicated TIRAP construct and 0.1 μg of an NF-κB-dependent luciferase reporter gene. pcDNA3 is an empty vector control; TIRAP is a vector encoding the full length TIRAP protein; TIRAP N is a vector encoding the N-terminal domain of TIRAP; TIRAP C is a vector encoding the C terminal domain of TIRAP; and TIRAP P125H is a vector encoding a mutant form of TIRAP containing a proline to histidine mutation at amino acid position 125. Cells were harvested 24 h post-transfection and lysed for analysis in a standard luciferase reporter assay. Luciferase activity is expressed as fold induction relative to mock transfected cells (FIG. 2A).

T2 sequence (Q99836 whole entry, species assumed): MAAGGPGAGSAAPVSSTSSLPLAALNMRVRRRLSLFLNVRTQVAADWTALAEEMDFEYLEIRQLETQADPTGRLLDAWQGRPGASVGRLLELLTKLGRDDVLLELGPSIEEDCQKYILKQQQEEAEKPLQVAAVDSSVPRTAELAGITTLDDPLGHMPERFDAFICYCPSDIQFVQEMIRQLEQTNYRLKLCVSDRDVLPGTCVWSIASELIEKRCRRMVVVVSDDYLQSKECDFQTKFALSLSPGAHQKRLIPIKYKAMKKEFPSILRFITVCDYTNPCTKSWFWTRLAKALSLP
Chain of IRAK (P51617 whole entry, species assumed): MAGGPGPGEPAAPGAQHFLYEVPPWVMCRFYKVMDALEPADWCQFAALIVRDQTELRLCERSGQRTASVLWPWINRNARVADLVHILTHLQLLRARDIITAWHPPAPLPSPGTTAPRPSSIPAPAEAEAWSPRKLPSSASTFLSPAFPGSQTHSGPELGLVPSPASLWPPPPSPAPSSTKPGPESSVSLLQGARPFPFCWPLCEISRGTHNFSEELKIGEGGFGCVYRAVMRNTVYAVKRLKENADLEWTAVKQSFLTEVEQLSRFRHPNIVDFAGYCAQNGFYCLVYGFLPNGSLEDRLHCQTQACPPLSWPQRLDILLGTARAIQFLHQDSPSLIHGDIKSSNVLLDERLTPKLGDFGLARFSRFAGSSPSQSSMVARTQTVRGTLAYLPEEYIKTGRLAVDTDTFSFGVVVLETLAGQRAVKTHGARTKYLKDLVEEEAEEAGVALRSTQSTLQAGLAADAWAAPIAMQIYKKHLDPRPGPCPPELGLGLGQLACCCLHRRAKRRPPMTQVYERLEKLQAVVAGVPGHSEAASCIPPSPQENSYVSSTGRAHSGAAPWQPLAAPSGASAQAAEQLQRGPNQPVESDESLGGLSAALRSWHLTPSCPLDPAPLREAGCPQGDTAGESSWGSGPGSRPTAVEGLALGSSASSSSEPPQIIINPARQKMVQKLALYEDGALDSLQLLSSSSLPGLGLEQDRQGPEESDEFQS
T3 sequence (P58753 1-235 isoform P58753-2): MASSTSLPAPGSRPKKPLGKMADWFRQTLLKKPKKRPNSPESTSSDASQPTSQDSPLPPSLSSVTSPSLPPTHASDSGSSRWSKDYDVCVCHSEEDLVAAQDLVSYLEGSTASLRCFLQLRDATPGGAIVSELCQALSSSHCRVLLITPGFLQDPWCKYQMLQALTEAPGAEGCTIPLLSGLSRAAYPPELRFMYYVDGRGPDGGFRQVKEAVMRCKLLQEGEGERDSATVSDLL

co-immunoprecipitation with TLR4 (TLR4): co-immunoprecipitate | interaction with MyD88 (co-immunoprecipitation) (MyD88): does not interact | association with IRAK (IRAK): failed to associate | co-immunoprecipitation of TIRAP with itself (homodimerization) (TIRAP): can be co-immunoprecipitated with itself | direct interaction with the TIR domain of TLR4 (TIR domain of TLR4): detected | co-immunoprecipitation with PACT (PACT): immunoprecipitate
Substance: TIRAP: vector encoding the full length TIRAP protein (Toll/Interleukin-1 Receptor Adapter Protein)
co-immunoprecipitation with PKR (PKR): co-immunoprecipitate | co-immunoprecipitation with p58 (p58): immunoprecipitate | activation of the NF-κB promoter, luciferase activity as fold induction relative to mock transfected cells (NF-κB promoter): approximately 80 fold induction
